Source: PMC10458530, “Synthesis and Evaluation of ePSMA-DM1: A New Theranostic Small-Molecule Drug Conjugate (T-SMDC) for Prostate Cancer” (Pharmaceuticals, 2023)
Like-named read-outs stand apart in the source and are kept apart here. Non-standard residues stand in square brackets, D forms with d. Residues, ends and D or L forms follow the SMILES beside them. *: point of attachment. Propanoyl(3-SS-DM1) = COc1cc2cc(c1Cl)N(C)C(=O)C[C@H](OC(=O)[C@H](C)N(C)C(=O)CCSSCCC(=O)*)[C@]1(C)O[C@H]1[C@H](C)[C@@H]1C[C@@](O)(NC(=O)O1)[C@H](OC)/C=C/C=C(\C)C2; DOTA = O=C(O)CN1CCN(CC(=O)O)CCN(CC(=O)*)CCN(CC(=O)O)CC1; EuK = O=C(O)CC[C@H](NC(=O)N[C@@H](CCCCN*)C(=O)O)C(=O)O; Sta = CC(C)C[C@H](N)[C@@H](O)CC(=O)O; Ahx = NCCCCCC(=O)O

Experiments:
Ex vivo biodistribution = type: in vivo, mouse; settings: male, mouse, intravenous, total radioactivity; for tissue uptake at 1 h: 1 h p.i.; for tissue uptake at 4 h: 4 h p.i.; for tissue uptake at 24 h: 24 h p.i.
Protocol: Animal experiments were performed using male BALB/c nude mice (8–10 weeks old; Janvier Labs, Le Genest-Saint-Isle, France). Animals were housed in individually ventilated cages (Blue line IVC, 2 mice per cage) under sterile standard conditions with cage enrichments present and free access to animal chow (Sniff GmbH, Soest, Germany) and water. They were acclimated for 1 week prior to experiments. Mice were subcutaneously inoculated with 4.0 × 10^6 LS174T cells in the right flank diluted in 100 μL of cell suspension […]. The average tumor volume size per group (n = 4) was of 206.2 ± 7.9 mm^3 (average weight of 105.8 ± 7.3 mg) after non-blinded grouping to enable homogenous tumor size distribution. [^111In]In-ePSMA-DM1 was injected intravenously via the tail vein. All experiments were approved by the institutional Animal Welfare Committee and were conducted in accordance to the guidelines of the Revised Dutch Act on Animal Experimentation (WOD).
Mice were intravenously injected with ~1 nmol of [^111In]In-ePSMA-DM1 (5 MBq). Mice (n = 4/timepoint) were euthanized by cervical dislocation at 1, 4 and 24 h p.i. A block group (co-injection of 50 nmol of PSMA-617) was included, and mice were euthanized at 4 h p.i. Organs (blood, heart, lungs, liver, spleen, stomach, intestines, pancreas, kidneys, muscle, skin, bone and prostate) and the tumors were collected in pre-weighed tubes, weighed after organ collection, and measured in the γ-counter, for which the calibration factor was determined by measuring different known activities of In-111. Activity was corrected for decay, and uptake was expressed as percentage of the injected dose per gram of the tissue (% ID/g). The biological half-lives in tissues of [^111In]In-ePSMA-DM1 were determined using a one-phase decay algorithm in GraphPad Prism 9.0 (GraphPad Software, Boston, MA, USA).

[1] = LogD7.4 by shake-flask method; type: physicochemical; settings: PBS pH 7.4/n-octanol
Protocol: The distribution coefficients (LogD7.4 values) were determined by the shake-flask method, in which 2 μL (~0.5 MBq) of [^111In]In-ePSMA-DM1 was added to an Eppendorf tube containing 1 mL of PBS (0.01 M, pH 7.4)/n-octanol (v/v, 1:1). After vigorous vortexing, the solution was centrifuged at 2500 g for 3 min for phase separation. The n-octanol phase was separated from the PBS phase into a new Eppendorf tube and centrifuged for 15 min. Samples (3 × 10 μL) of the two phases were taken out and measured in the γ-counter. LogD7.4 values were calculated by using the following equation: LogD7.4 = log [(counts in octanol phase)/(counts in aqueous phase)] and the experiment was performed in triplicate.

[2] = BALB/c nude (BALB/c nu/nu), blood, 1 nmol, read-out: uptake in blood
[3] = BALB/c nude (BALB/c nu/nu), heart, 1 nmol, read-out: uptake in heart
[4] = BALB/c nude (BALB/c nu/nu), kidney, 1 nmol, read-out: uptake in kidney
[5] = BALB/c nude (BALB/c nu/nu), liver, 1 nmol, read-out: uptake in liver
[6] = BALB/c nude (BALB/c nu/nu), lung, 1 nmol, read-out: uptake in lung
[7] = BALB/c nude (BALB/c nu/nu), muscle, 1 nmol, read-out: uptake in muscle
[8] = BALB/c nude (BALB/c nu/nu), pancreas, 1 nmol, read-out: uptake in pancreas
[9] = BALB/c nude (BALB/c nu/nu), skin, 1 nmol, read-out: uptake in skin
[10] = BALB/c nude (BALB/c nu/nu), spleen, 1 nmol, read-out: uptake in spleen
[11] = BALB/c nude (BALB/c nu/nu), stomach, 1 nmol, read-out: uptake in stomach
[12] = BALB/c nude (BALB/c nu/nu), tumor, 1 nmol, read-out: uptake in tumor
[13] = BALB/c nude (nu/nu), bone, 1 nmol, read-out: uptake in bone
[14] = BALB/c nude (nu/nu), intestines, 1 nmol, read-out: uptake in intestines
[15] = BALB/c nude (nu/nu), prostate, 1 nmol, read-out: uptake in prostate

COc1cc2cc(c1Cl)N(C)C(=O)C[C@H](OC(=O)[C@H](C)N(C)C(=O)CCSSCCC(=O)NCCCC[C@H](NC(=O)CN1CCN(CC(=O)O)CCN(CC(=O)O)CCN(CC(=O)O)CC1)C(=O)N[C@@H](CC(=O)O)C(=O)N[C@@H](Cc1ccccc1)C(=O)N[C@@H](CC(C)C)[C@@H](O)CC(=O)NCCCCCC(=O)NCCCC[C@H](NC(=O)N[C@@H](CCC(=O)O)C(=O)O)C(=O)O)[C@]1(C)O[C@H]1[C@H](C)[C@@H]1C[C@@](O)(NC(=O)O1)[C@H](OC)/C=C/C=C(\C)C2 [[^111In]In-ePSMA-DM1, metal not drawn] ({DOTA}-K(Propanoyl(3-SS-DM1))DF[Sta][Ahx]-EuK)
tissue uptake at 1 h (Ex vivo biodistribution; [2]): 1.43 ± 0.04 %ID/g
tissue uptake at 4 h (Ex vivo biodistribution; [2]): 0.37 ± 0.01 %ID/g
tissue uptake at 24 h (Ex vivo biodistribution; [2]): 0.04 %ID/g
tissue uptake at 4 h (Ex vivo biodistribution; BALB/c nude (BALB/c nu/nu), blood, block (co-injection of PSMA-617), read-out: uptake in blood): 0.3 ± 0.04 %ID/g
tissue uptake at 1 h (Ex vivo biodistribution; [3]): 0.65 ± 0.1 %ID/g
tissue uptake at 4 h (Ex vivo biodistribution; [3]): 0.23 ± 0.04 %ID/g
tissue uptake at 24 h (Ex vivo biodistribution; [3]): 0.1 ± 0.02 %ID/g
tissue uptake at 4 h (Ex vivo biodistribution; BALB/c nude (BALB/c nu/nu), heart, block (co-injection of PSMA-617), read-out: uptake in heart): 0.18 %ID/g
tissue uptake at 1 h (Ex vivo biodistribution; [4]): 34 ± 2.54 %ID/g
tissue uptake at 4 h (Ex vivo biodistribution; [4]): 31.6 ± 1.78 %ID/g
tissue uptake at 24 h (Ex vivo biodistribution; [4]): 13.2 ± 0.95 %ID/g
tissue uptake at 4 h (Ex vivo biodistribution; BALB/c nude (BALB/c nu/nu), kidney, block (co-injection of PSMA-617), read-out: uptake in kidney): 24 ± 1.46 %ID/g
tissue uptake at 1 h (Ex vivo biodistribution; [5]): 0.68 %ID/g
tissue uptake at 4 h (Ex vivo biodistribution; [5]): 0.63 ± 0.02 %ID/g
tissue uptake at 24 h (Ex vivo biodistribution; [5]): 0.39 ± 0.04 %ID/g
tissue uptake at 4 h (Ex vivo biodistribution; BALB/c nude (BALB/c nu/nu), liver, block (co-injection of PSMA-617), read-out: uptake in liver): 0.56 ± 0.05 %ID/g
tissue uptake at 1 h (Ex vivo biodistribution; [6]): 1.34 ± 0.18 %ID/g
tissue uptake at 4 h (Ex vivo biodistribution; [6]): 0.4 ± 0.03 %ID/g
tissue uptake at 24 h (Ex vivo biodistribution; [6]): 0.25 ± 0.12 %ID/g
tissue uptake at 4 h (Ex vivo biodistribution; BALB/c nude (BALB/c nu/nu), lung, block (co-injection of PSMA-617), read-out: uptake in lung): 0.51 ± 0.26 %ID/g
tissue uptake at 1 h (Ex vivo biodistribution; [7]): 0.3 ± 0.06 %ID/g
tissue uptake at 4 h (Ex vivo biodistribution; [7]): 0.21 ± 0.16 %ID/g
tissue uptake at 24 h (Ex vivo biodistribution; [7]): 0.07 ± 0.01 %ID/g
tissue uptake at 4 h (Ex vivo biodistribution; BALB/c nude (BALB/c nu/nu), muscle, block (co-injection of PSMA-617), read-out: uptake in muscle): 0.1 ± 0.01 %ID/g
tissue uptake at 4 h (Ex vivo biodistribution; [8]): 0.17 ± 0.01 %ID/g
tissue uptake at 24 h (Ex vivo biodistribution; [8]): 0.09 ± 0.01 %ID/g
tissue uptake at 4 h (Ex vivo biodistribution; BALB/c nude (BALB/c nu/nu), pancreas, block (co-injection of PSMA-617), read-out: uptake in pancreas): 0.14 ± 0.02 %ID/g
tissue uptake at 1 h (Ex vivo biodistribution; [9]): 1.37 ± 0.29 %ID/g
tissue uptake at 4 h (Ex vivo biodistribution; [9]): 0.75 ± 0.12 %ID/g
tissue uptake at 1 h (Ex vivo biodistribution; [10]): 1.32 ± 0.28 %ID/g
tissue uptake at 4 h (Ex vivo biodistribution; [10]): 0.47 ± 0.08 %ID/g
tissue uptake at 24 h (Ex vivo biodistribution; [10]): 0.27 ± 0.01 %ID/g
tissue uptake at 4 h (Ex vivo biodistribution; BALB/c nude (BALB/c nu/nu), spleen, block (co-injection of PSMA-617), read-out: uptake in spleen): 0.32 ± 0.02 %ID/g
tissue uptake at 1 h (Ex vivo biodistribution; [11]): 0.8 ± 0.61 %ID/g
tissue uptake at 4 h (Ex vivo biodistribution; [11]): 0.47 ± 0.32 %ID/g
tissue uptake at 4 h (Ex vivo biodistribution; [12]): 1.19 ± 0.22 %ID/g
tissue uptake at 24 h (Ex vivo biodistribution; [12]): 0.5 ± 0.14 %ID/g
tissue uptake at 4 h (Ex vivo biodistribution; BALB/c nude (BALB/c nu/nu), tumor, block (co-injection of PSMA-617), read-out: uptake in tumor): 0.8 ± 0.31 %ID/g
tissue uptake at 1 h (Ex vivo biodistribution; [13]): 0.73 ± 0.27 %ID/g
tissue uptake at 4 h (Ex vivo biodistribution; [13]): 0.41 ± 0.06 %ID/g
tissue uptake at 24 h (Ex vivo biodistribution; [13]): 0.3 ± 0.03 %ID/g
tissue uptake at 4 h (Ex vivo biodistribution; BALB/c nude (nu/nu), bone, block (co-injection of PSMA-617), read-out: uptake in bone): 0.33 ± 0.04 %ID/g
tissue uptake at 1 h (Ex vivo biodistribution; [14]): 0.56 ± 0.19 %ID/g
tissue uptake at 4 h (Ex vivo biodistribution; [14]): 0.45 ± 0.2 %ID/g
tissue uptake at 24 h (Ex vivo biodistribution; [14]): 0.12 ± 0.03 %ID/g
tissue uptake at 4 h (Ex vivo biodistribution; BALB/c nude (nu/nu), intestines, block (co-injection of PSMA-617), read-out: uptake in intestines): 0.56 ± 0.35 %ID/g
tissue uptake at 1 h (Ex vivo biodistribution; BALB/c nude (nu/nu), pancreas, 1 nmol, read-out: uptake in pancreas): 0.43 ± 0.11 %ID/g
tissue uptake at 1 h (Ex vivo biodistribution; [15]): 1.92 ± 0.87 %ID/g
tissue uptake at 4 h (Ex vivo biodistribution; [15]): 0.46 ± 0.19 %ID/g
tissue uptake at 24 h (Ex vivo biodistribution; [15]): 0.16 ± 0.03 %ID/g
tissue uptake at 4 h (Ex vivo biodistribution; BALB/c nude (nu/nu), prostate, block (co-injection of PSMA-617), read-out: uptake in prostate): 0.4 ± 0.18 %ID/g
tissue uptake at 24 h (Ex vivo biodistribution; BALB/c nude (nu/nu), skin, 1 nmol, read-out: uptake in skin): 0.44 ± 0.05 %ID/g
tissue uptake at 4 h (Ex vivo biodistribution; BALB/c nude (nu/nu), skin, block (co-injection of PSMA-617), read-out: uptake in skin): 0.57 ± 0.19 %ID/g
tissue uptake at 24 h (Ex vivo biodistribution; BALB/c nude (nu/nu), stomach, 1 nmol, read-out: uptake in stomach): 0.05 ± 0.02 %ID/g
tissue uptake at 4 h (Ex vivo biodistribution; BALB/c nude (nu/nu), stomach, block (co-injection of PSMA-617), read-out: uptake in stomach): 0.3 ± 0.24 %ID/g
tissue uptake at 1 h (Ex vivo biodistribution; BALB/c nude (nu/nu), tumor, 1 nmol, read-out: uptake in tumor): 2.39 ± 0.29 %ID/g
logD [1]: -2.47 ± 0.11
